Test results as given in publication doi:10.1101/108647.
Where two headings read alike, the source gives them in different places.

Columns and labels:
[1] = molecular target: T1, HisFlag-Mlh1 (MutLγ subunit);Mlh3 (MutLγ subunit) (Saccharomyces cerevisiae (S288c, …, UniProt P38920;Q12083 1-769;1-715, |)); assay: FeBABE footprinting
T1 sequence 1: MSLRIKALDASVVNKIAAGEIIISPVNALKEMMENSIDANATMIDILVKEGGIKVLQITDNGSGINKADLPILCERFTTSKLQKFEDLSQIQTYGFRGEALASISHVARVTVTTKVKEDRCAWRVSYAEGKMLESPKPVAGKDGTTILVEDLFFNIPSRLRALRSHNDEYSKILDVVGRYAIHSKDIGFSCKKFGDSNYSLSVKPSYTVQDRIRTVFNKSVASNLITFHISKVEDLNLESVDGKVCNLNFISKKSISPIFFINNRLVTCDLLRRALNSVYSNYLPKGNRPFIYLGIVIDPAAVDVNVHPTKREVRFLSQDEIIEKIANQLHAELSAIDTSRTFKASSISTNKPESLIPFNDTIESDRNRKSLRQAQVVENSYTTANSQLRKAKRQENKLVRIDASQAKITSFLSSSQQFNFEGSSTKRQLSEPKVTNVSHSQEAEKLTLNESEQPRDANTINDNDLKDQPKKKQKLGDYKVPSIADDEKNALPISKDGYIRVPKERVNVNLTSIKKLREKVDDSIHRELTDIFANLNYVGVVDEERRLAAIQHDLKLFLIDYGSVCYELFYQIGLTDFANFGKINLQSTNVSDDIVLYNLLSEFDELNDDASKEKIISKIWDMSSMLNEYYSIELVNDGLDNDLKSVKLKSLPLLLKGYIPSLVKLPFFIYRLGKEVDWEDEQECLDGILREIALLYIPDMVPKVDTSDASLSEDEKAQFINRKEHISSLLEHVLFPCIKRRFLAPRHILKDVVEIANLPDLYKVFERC
T1 sequence 2: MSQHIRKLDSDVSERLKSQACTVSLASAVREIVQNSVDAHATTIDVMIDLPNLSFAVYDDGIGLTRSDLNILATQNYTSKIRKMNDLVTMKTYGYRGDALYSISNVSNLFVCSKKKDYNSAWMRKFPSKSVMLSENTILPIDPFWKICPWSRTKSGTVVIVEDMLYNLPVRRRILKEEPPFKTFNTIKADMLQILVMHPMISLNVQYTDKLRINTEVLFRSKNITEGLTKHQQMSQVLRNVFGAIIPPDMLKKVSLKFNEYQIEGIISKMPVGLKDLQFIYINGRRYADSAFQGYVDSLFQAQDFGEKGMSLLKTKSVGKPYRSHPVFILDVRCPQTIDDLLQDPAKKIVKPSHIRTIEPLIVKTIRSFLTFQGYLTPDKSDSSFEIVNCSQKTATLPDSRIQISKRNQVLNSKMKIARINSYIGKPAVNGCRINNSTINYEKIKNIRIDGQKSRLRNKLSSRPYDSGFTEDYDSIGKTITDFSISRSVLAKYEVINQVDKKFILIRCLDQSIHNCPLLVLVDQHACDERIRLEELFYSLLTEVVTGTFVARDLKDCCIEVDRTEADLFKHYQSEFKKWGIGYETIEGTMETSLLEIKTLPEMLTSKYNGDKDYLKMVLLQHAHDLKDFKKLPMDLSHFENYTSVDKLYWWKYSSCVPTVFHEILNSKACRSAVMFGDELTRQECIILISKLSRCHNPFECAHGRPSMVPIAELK

[2] = molecular target: T2, Mlh1 (untagged);HisFlag-Mlh3 (Saccharomyces cerevisiae (S288c, …, UniProt P38920;Q12083 1-769;1-715, |)); assay: FeBABE footprinting
T2 sequence 1: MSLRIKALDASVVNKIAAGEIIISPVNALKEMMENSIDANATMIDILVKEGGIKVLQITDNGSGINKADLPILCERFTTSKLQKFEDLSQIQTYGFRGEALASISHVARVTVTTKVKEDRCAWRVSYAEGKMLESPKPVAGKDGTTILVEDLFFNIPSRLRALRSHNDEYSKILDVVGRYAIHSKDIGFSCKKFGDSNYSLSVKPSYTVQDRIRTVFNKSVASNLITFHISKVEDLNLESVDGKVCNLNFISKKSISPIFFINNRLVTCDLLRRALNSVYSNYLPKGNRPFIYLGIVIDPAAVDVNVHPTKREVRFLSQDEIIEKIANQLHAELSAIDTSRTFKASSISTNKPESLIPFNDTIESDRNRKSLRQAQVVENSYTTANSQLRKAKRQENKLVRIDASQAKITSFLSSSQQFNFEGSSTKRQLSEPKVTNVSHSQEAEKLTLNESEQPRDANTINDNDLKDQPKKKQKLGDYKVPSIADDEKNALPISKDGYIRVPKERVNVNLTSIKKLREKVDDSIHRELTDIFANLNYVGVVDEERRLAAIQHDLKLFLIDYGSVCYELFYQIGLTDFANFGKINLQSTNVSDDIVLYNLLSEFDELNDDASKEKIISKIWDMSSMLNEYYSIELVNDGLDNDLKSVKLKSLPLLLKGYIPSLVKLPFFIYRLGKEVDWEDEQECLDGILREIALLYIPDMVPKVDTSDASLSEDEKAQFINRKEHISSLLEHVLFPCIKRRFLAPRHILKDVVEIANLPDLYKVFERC
T2 sequence 2: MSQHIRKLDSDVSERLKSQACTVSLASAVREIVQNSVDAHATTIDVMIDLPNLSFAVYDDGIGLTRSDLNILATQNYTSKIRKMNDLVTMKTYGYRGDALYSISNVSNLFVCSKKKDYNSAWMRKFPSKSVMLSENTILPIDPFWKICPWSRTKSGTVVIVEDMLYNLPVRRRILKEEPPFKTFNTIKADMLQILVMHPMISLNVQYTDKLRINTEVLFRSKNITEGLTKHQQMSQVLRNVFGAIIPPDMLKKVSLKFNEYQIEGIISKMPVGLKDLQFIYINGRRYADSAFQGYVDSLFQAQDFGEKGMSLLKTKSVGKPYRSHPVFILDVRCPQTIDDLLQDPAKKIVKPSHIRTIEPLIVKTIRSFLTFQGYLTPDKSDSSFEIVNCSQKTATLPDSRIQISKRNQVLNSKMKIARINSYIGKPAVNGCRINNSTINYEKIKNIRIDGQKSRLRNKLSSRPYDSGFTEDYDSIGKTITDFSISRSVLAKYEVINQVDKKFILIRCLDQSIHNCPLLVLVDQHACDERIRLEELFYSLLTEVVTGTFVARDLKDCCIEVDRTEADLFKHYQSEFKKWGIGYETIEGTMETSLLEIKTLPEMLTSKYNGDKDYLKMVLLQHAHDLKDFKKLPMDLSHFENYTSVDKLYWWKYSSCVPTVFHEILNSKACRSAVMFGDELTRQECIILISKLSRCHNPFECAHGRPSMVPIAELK

[3] = molecular target: T1, HisFlag-Mlh1 (MutLγ subunit);Mlh3 …; assay: pull-down
[4] = molecular target: T1, HisFlag-Mlh1 (MutLγ subunit);Mlh3 …; assay: FeBABE footprinting; remark: listed apart in the source
[5] = molecular target: T2, Mlh1 (untagged);HisFlag-Mlh3; assay: FeBABE footprinting; remark: listed apart in the source

B1: ssDNA+ FeBABE (cb361) (ssDNA)
DNA: TTTTTTTTTTTTTTTTTTTTTTTTTTTTTTTTTTTTTTTTTTTTTTTTTTTTTTTTTTTTTTTTTTTTTTTTTTTTTTTT
modifications: phosphorothioate-FeBABE after every 8 nt; 3'-biotin
binding result [1]: binds | binding result [2]: binds

B2: ssDNA80-biotin (cb316) (ssDNA)
DNA: TTTTTTTTTTTTTTTTTTTTTTTTTTTTTTTTTTTTTTTTTTTTTTTTTTTTTTTTTTTTTTTTTTTTTTTTTTTTTTTT
modifications: 3'-biotin
binding result [3]: binds

B3: HJ+1 FeBABE (cb256/351/369/098) (structured_DNA)
DNA 1: CTAGTATAGAGCCGGCGCGCCATGTCTAGATAGCGTTAGGTCTGCCGAATAGTACTACTCGGATCCCGAGCGAACCACGC
DNA 2: GCGTGGTTCGCTCGGGATCCGAGTAGTACTATTCGGCAGAGGATTCGAATAGGCCTAATCGAATTCCGCCATCGATGCAC
DNA 3: GTGCATCGATGGCGGAATTCGATTAGGCCTATTCGAATCCAGACGCGAGTAGATCTTCACGGTACCCGCGGTTACCCGTG
DNA 4: CACGGGTAACCGCGGGTACCGTGAAGATCTACTCGCGTCTCCTAACGCTATCTAGACATGGCGCGCCGGCTCTATACTAG
modifications: phosphorothioate-FeBABE on strands 2 and 3, segment 1 (nearest the center); 3'-biotin on strand 1
binding result [4]: binds | binding result [5]: binds

B4: HJ80-biotin (cb256/096/097/098) (structured_DNA)
DNA 1: CTAGTATAGAGCCGGCGCGCCATGTCTAGATAGCGTTAGGTCTGCCGAATAGTACTACTCGGATCCCGAGCGAACCACGC
DNA 2: GCGTGGTTCGCTCGGGATCCGAGTAGTACTATTCGGCAGAGGATTCGAATAGGCCTAATCGAATTCCGCCATCGATGCAC
DNA 3: GTGCATCGATGGCGGAATTCGATTAGGCCTATTCGAATCCAGACGCGAGTAGATCTTCACGGTACCCGCGGTTACCCGTG
DNA 4: CACGGGTAACCGCGGGTACCGTGAAGATCTACTCGCGTCTCCTAACGCTATCTAGACATGGCGCGCCGGCTCTATACTAG
modifications: 3'-biotin on strand 1
binding result [3]: binds

B5: dsDNA80-biotin (cb256/cb100) (dsDNA)
DNA 1: CTAGTATAGAGCCGGCGCGCCATGTCTAGATAGCGTTAGGTCTGCCGAATAGTACTACTCGGATCCCGAGCGAACCACGC
DNA 2: GCGTGGTTCGCTCGGGATCCGAGTAGTACTATTCGGCAGACCTAACGCTATCTAGACATGGCGCGCCGGCTCTATACTAG
modifications: 3'-biotin on strand 1
binding result [3]: no binding
